B1: TPR t1 (parent)
chain: GACCAAUCUGCCCUCAGAGCUCGAGAACAUCUUCGGAUGCAGAGGAGGCAGGCUUCGGUGGCGCGAUAGCGCCAACGUCCUCAACCUCCAAUGCAUCCCACCACAUGAUGAUGCCUGAAGAGCCUUGGUUUUUUG

Variants of: B1
Test: polymerase ribozyme fitness, log enrichment relative to wild type (log ratio); higher = more active; in vitro selection for triplet polymerase activity
How it was run: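 Only genotypes with ≥10 input reads and ≥1 read per output were kept after Illumina sequencing of input and output libraries. These libraries were PCR-built, transcribed mutants of each subunit of a heterodimeric triplet polymerase ribozyme, each put through one triplicate in vitro selection round with frozen incubation at −7 °C, gel excision of extended constructs, streptavidin-bead capture and RT-PCR. Fitness is a logarithmic ratio of genotype enrichment to wild-type enrichment, from inverse-variance-weighted replicate averages, with the logarithm in base 2.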

In order of rising “polymerase ribozyme fitness (log ratio)” value:
1. C49A G61C C80G C104A G117U  -8.34
2. C49G C64G G120U C124A G135U  -7.53
3. C49G G52U C56G C72G  -7.2
4. G48U U54C C73G C82G G113A G122A U126G  -6.92
5. C49A C72A G110C U112A  -6.75
6. G48C G60U U106A G107C  -6.48
7. C49A C104G  -6.42
8. G48U G65U  -6.34
9. G48C U78A A111U C123A U129A  -6.15
10. C49A C70A C97A G120U U130G  -6.14
11. C49G A84U G110C  -5.43
12. C49G C89A A111C A118C U129A U134G  -5.22
13. C49G C72G G117A U125A  -4.73
14. C49A G61C G110U U125C  -4.57
15. G48C G52U U55G C76U A100C U125G  -4.57
16. G48U C97G  -4.5
17. C49G C62U A90U G113U  -4.27
18. C49G A66C C101G  -4.2
19. G48U G52U C102A  -4.14
20. C49A G71A C101A C114A  -4.05
21. G48C C72A C79G G127C  -3.9
22. C49A A66U A90C  -3.76
23. G48C G63A G113A U126C  -3.69
24. C49G C85U G117C  -3.67
25. G48C G71A G110A G120A  -3.66
26. C49A G61C C88U G117A G135C  -3.6
27. C49G A90U G113U  -3.57
28. G48C G61A A83U U87A G128U  -3.32
29. C49G G51A G61C C94U  -3.22
30. G48U U54C C82G C115G  -3.12
31. C49G G60U C73U G128U  -3.07
32. C49A C64U G117U  -2.9
33. G48U C56A C102U  -2.75
34. G48U C114U  -2.73
35. G48C G63C  -2.72
36. C49G A90U  -2.58
37. C49A C73A C101G C115A G120A  -2.56
38. C49G G63A U87A  -2.53
39. G48U C79U  -2.53
40. C49G C73A C85U C89A  -2.43
41. C49A G93C G110U U132C  -2.27
42. G48U C56U C104A  -2.25
43. G48U U59A G69C U116C C124U  -2.23
44. C49A C72U G77U  -2.22
45. C49G C80U C85G  -2.11
46. G48U C62U G71C U96A  -2.08
47. C49A G113C  -2.05
48. G48U G63A  -1.96
49. G48C G93A  -1.82
50. C49A U55G U125A G127A  -1.79
51. C49G C73G  -1.7
52. G48C G127C  -1.62
53. C49A G93U U112G  -1.59
54. C49A A50G C88A  -1.58
55. G48U U87A  -1.44
56. C49A C53U C101A  -1.38
57. G48C C79U  -1.34
58. C49A A50G  -1.27
59. G48U C49A C73A C115U U133C  -1.19
60. C49A A74G U116G  -1.13
61. C49A C73A C88U A91U  -1.03
62. G48C C73A U112A G120C  -0.954
63. G48C G63A  -0.954
64. C49G C72A  -0.887
65. G48U U132A  -0.856
66. C49A G52A  -0.855
67. G48U U134G  -0.783
68. C49G G60U U96G  -0.746
69. G48U G60A C85G  -0.64
70. C49A C72A C94A  -0.633
71. G48C G93C  -0.578
72. G48U C64U  -0.368
73. C49A G120U  -0.22
74. C49A A50C A119G  0.187
75. C49A C123A  0.189
76. C49A U78A G120C  0.377
77. G48U C124U U125A  0.397
78. G48U G120A C123U  0.409
79. C49A C123G  0.461
80. G48C C115A A121U  0.474
81. G48U U55G U112A  0.525
82. C49A G61A  0.617
83. C49A C56U C123A  0.705

From the RNAGym collection of RNA variant scans (doi:10.1073/pnas.2313332121)
